According to paper PMC10505172, “Discovery and pharmacophoric characterization of chemokine network inhibitors using phage-display, saturation mutagenesis and computational modelling” (Nature Communications, 2023):
Ends that are not written are not given here.

Legend:
CXCL6 = CXCL6 (human, UniProt P80162 38-114); assay: cell-based or functional assay
CCL8 = biological target: T1, CCL8 (human, UniProt P80075 24-99); assay: cell-based or functional assay
T1 sequence (looked up): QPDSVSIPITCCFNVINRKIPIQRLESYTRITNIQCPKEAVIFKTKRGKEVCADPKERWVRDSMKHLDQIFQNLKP

B1: HD2 synthetic peptide (peptide)
peptide: EEDDYTAYAPLTCYFT-NH2
CXCL6
  IC50 (median of biological replicates) of inhibition of CXCL6-induced cell migration, chemokine at EC80: 1.4e-05 molar
CCL8
  IC50 (median of biological replicates) of inhibition of CCL8-induced cell migration, chemokine at EC80: 1.9e-08 molar
